Assay results taken from the supplement of paper PMC10126150.
± gives the standard deviation of the averaged measurements.

Test system: ATP
Assay: switch fluorescence ratio, 500 uM ATP over buffer (Cy3 cluster intensity, sum of 5 cycles each) (fold (ratio)); higher = stronger signal-on switching upon ATP binding; sequences stand for … in TCGTCGGCAGCGTCAGATGTGTATAAGAGACAGTTTTTTTTTTTTTTTTTTTTTTTTT…TC
Conditions: aptamer strand: ATP DNA aptamer (quencher-CACCTGGGGGAGTATTGCGGAGGAAGG + anchor), 100 nM annealed; ATP concentration: 500 uM
Summary of the method: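 Clusters with intensities outside 100-1000 RFU were excluded. The remaining Cy3-labelled switching-strand clusters on a modified Illumina MiSeq flow-cell had been annealed to 100 nM quencher-labelled ATP aptamer and imaged in selection buffer, then after 15 min with 500 uM ATP at 22 °C, for five cycles separated by NaOH stripping and re-annealing. The fluorescence ratio, averaged per switch-domain sequence, is each cluster's summed target-cycle Cy3 intensity over its summed buffer-cycle Cy3 intensity.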
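Further: ATP exposure 15 min at 22 °C before imaging.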

Sequence	switch fluorescence ratio
AGGGGCGTAC	1.07 ± 0.022
AGGGGCTATT	1.01 ± 0.014
AGGGGGACAC	1 ± 0.028
AGGGGGAGTT	0.979 ± 0.025
AGGGGGATAG	0.967 ± 0.052
AGGGGGATCT	1.03 ± 0.04
AGGGGGATTT	0.999 ± 0.052
AGGGGGCAGG	1.01 ± 0.017
AGGGGGCCTG	0.992 ± 0.01
AGGGGGCGGC	0.995 ± 0.031
AGGGGGGACG	0.915 ± 0.098
AGGGGGGTCT	1.01 ± 0.04
AGGGGGGTGA	1.017 ± 0.0015
AGGGGGGTTA	0.984 ± 0.04
AGGGGGTAAG	0.988 ± 0.028
AGGGGGTAGG	0.978 ± 0.022
AGGGGGTCTG	0.968 ± 0.017
AGGGGGTCTT	1.01 ± 0.016
AGGGGGTGTA	1.02 ± 0.014
AGGGGGTTAT	1.01 ± 0.03
AGGGGGTTCC	0.99 ± 0.033
AGGGGTAAAA	1 ± 0.014
AGGGGTAATT	1.02 ± 0.024
AGGGGTACAG	0.995 ± 0.04
AGGGGTACTG	1.01 ± 0.099

Sequence	switch fluorescence ratio
AGGGGTATTG	0.993 ± 0.017
AGGGGTCAAT	0.997 ± 0.0012
AGGGGTCTCA	0.9852 ± 0.0035
AGGGGTCTCT	0.985 ± 0.013
AGGGGTCTGT	1.015 ± 0.0013
AGGGGTGGGA	1.01 ± 0.02
AGGGGTGGGG	1 ± 0.029
AGGGGTGGGT	1.04 ± 0.054
AGGGGTGTTA	0.991 ± 0.019
AGGGGTTAGG	0.992 ± 0.021
AGGGGTTGGA	1.01 ± 0.036
AGGGGTTTGT	1.02 ± 0.017
AGGGGTTTTT	0.991 ± 0.011
AGGGTAAACT	1.27 ± 0.37
AGGGTAAGGA	1.09 ± 0.18
AGGGTAATCG	1.02 ± 0.011
AGGGTAGGGC	1.02 ± 0.025
AGGGTAGTTG	0.994 ± 0.019
AGGGTATAGA	0.987 ± 0.01
AGGGTATGGG	1.03 ± 0.058
AGGGTATGGT	1.01 ± 0.023
AGGGTATTAT	0.987 ± 0.019
AGGGTCAAGG	0.971 ± 0.046
AGGGTCCCGC	0.9929 ± 0.0024
AGGGTCGCTA	1 ± 0.014

Sequence	switch fluorescence ratio
AGGGTCTTTT	1.03 ± 0.053
AGGGTGAAAG	0.992 ± 0.023
AGGGTGAATT	0.9848 ± 0.0075
AGGGTGACAG	0.9566 ± 0.0056
AGGGTGCGGG	1.01 ± 0.018
AGGGTGCTGT	1.02 ± 0.016
AGGGTGGCTT	1.02 ± 0.088
AGGGTGTTAG	1 ± 0.013
AGGGTGTTGG	1 ± 0.017
AGGGTTAGGC	0.933 ± 0.02
AGGGTTATAG	0.982 ± 0.025
AGGGTTATGG	0.996 ± 0.016
AGGGTTATTC	1 ± 0.013
AGGGTTCGGA	1.015 ± 0.0029
AGGGTTGTGT	1.02 ± 0.029
AGGGTTTACG	1.05 ± 0.045
AGGGTTTGCG	1.04 ± 0.042
AGGGTTTTCT	1 ± 0.012
AGGGTTTTTT	1.02 ± 0.039
AGGTAAATGG	1.02 ± 0.026
AGGTACAGAC	1.12 ± 0.024
AGGTACTCGA	1.05 ± 0.02
AGGTAGATAG	0.948 ± 0.0068
AGGTAGGAAG	0.999 ± 0.034
AGGTAGGATT	1.01 ± 0.05

Sequence	switch fluorescence ratio
AGGTAGGGTA	0.992 ± 0.031
AGGTAGGTGT	1.04 ± 0.023
AGGTAGTTC	0.96 ± 0.1
AGGTATGGAG	0.981 ± 0.065
AGGTATTATC	0.968 ± 0.014
AGGTATTGCG	0.994 ± 0.044
AGGTCAGGTT	1.0131 ± 0.0003
AGGTCAGTTT	0.989 ± 0.017
AGGTCCGCTT	1.32 ± 0.039
AGGTCCGGGT	0.9981 ± 0.0065
AGGTCGAGGG	0.997 ± 0.026
AGGTCGGGAT	1 ± 0.045
AGGTCTAAGG	1 ± 0.022
AGGTCTAGC	0.995 ± 0.017
AGGTCTTATT	1.08 ± 0.094
AGGTCTTCCG	1 ± 0.011
AGGTCTTGGG	0.972 ± 0.027
AGGTGATTAG	0.986 ± 0.044
AGGTGCATAT	1.045 ± 0.0041
AGGTGCTAAT	0.968 ± 0.011
AGGTGGGGCT	0.9811 ± 0.0089
AGGTGGGGGC	1.003 ± 0.0095
AGGTGGGTCT	0.991 ± 0.011
AGGTGGGTTT	0.988 ± 0.044
AGGTGTGATA	1.1 ± 0.051

Sequence	switch fluorescence ratio
AGGTGTGGCT	1 ± 0.048
AGGTGTGTCT	1.019 ± 0.0093
AGGTGTTATT	1.005 ± 0.0074
AGGTGTTTTG	1.02 ± 0.0087
AGGTTAAAAT	1.03 ± 0.024
AGGTTAAGCA	1.02 ± 0.0034
AGGTTAGGCT	0.989 ± 0.014
AGGTTCACCC	1.07 ± 0.08
AGGTTCGGAT	0.985 ± 0.056
AGGTTCTCTG	0.9942 ± 0.0011
AGGTTGAGCT	0.9791 ± 0.0021
AGGTTGAGG	1.01 ± 0.021
AGGTTGCGCG	1.009 ± 0.0079
AGGTTGGATT	0.9706 ± 0.0039
AGGTTGGCGT	0.995 ± 0.029
AGGTTGGGAA	0.944 ± 0.07
AGGTTGGGGG	0.981 ± 0.013
AGGTTGGTCG	0.974 ± 0.064
AGGTTGTGAC	0.989 ± 0.029
AGGTTGTTTG	1.01 ± 0.031
AGGTTTGGAT	0.991 ± 0.078
AGGTTTTCTC	1.02 ± 0.052
AGGTTTTTTA	1.02 ± 0.022
AGTAAAAAAA	0.987 ± 0.033
AGTAAAGCAG	1 ± 0.055

Sequence	switch fluorescence ratio
AGTAAAGTTC	1.03 ± 0.028
AGTAACAGTA	1 ± 0.037
AGTAACATTT	0.974 ± 0.069
AGTAACTAGA	1.01 ± 0.046
AGTAAGAGTC	1.01 ± 0.017
AGTAAGATGT	0.976 ± 0.034
AGTAAGCGGC	1.004 ± 0.0094
AGTAATTTTA	1.04 ± 0.04
AGTACACGTG	0.993 ± 0.026
AGTACATAGT	0.99 ± 0.024
AGTACATGAT	1.02 ± 0.025
AGTACCGGGT	1.04 ± 0.049
AGTACGGGGG	0.992 ± 0.021
AGTAGAAATG	0.991 ± 0.012
AGTAGAATTG	0.966 ± 0.054
AGTAGAGATG	1.03 ± 0.028
AGTAGAGTTT	0.987 ± 0.013
AGTAGCAAGC	3.3 ± 0.17
AGTAGCAGCT	1.03 ± 0.048
AGTAGCGATT	1.06 ± 0.031
AGTAGGCGAG	0.996 ± 0.042
AGTAGGGGAA	0.995 ± 0.035
AGTAGGGTTG	0.957 ± 0.011
AGTAGGTAAA	1.03 ± 0.023
AGTAGGTAGG	0.981 ± 0.03

Sequence	switch fluorescence ratio
AGTAGGTAGT	0.968 ± 0.019
AGTAGGTCGG	0.987 ± 0.01
AGTAGTAAGC	1.03 ± 0.023
AGTAGTAAGT	1.01 ± 0.012
AGTAGTTGGG	0.967 ± 0.037
AGTATAAAAA	1.03 ± 0.062
AGTATAGGGA	1.011 ± 0.01
AGTATCTGGG	0.9886 ± 0.0094
AGTATGGAGC	0.9983 ± 0.004
AGTATGGGGA	0.989 ± 0.016
AGTATGGGGG	1.02 ± 0.015
AGTATGGTGG	0.998 ± 0.013
AGTATGTGCT	0.965 ± 0.024
AGTATGTGTC	1.01 ± 0.042
AGTATTCTG	0.961 ± 0.04
AGTATTGGGT	0.998 ± 0.035
AGTATTTCGT	0.987 ± 0.031
AGTATTTTTA	1.01 ± 0.012
AGTATTTTTG	1.01 ± 0.032
AGTCCGATTT	1.03 ± 0.061
AGTCCTTAGC	1 ± 0.071
AGTCGGGGGC	1.03 ± 0.04
AGTCGGGGGT	0.99 ± 0.024
AGTCGGGTCT	1.05 ± 0.083
AGTCGTTCAG	0.949 ± 0.023

Sequence	switch fluorescence ratio
AGTCTAGTGG	0.985 ± 0.027
AGTCTCTCAT	0.992 ± 0.03
AGTCTGCTGT	0.984 ± 0.037
AGTGACATCG	1.14 ± 0.076
AGTGAGAGGA	0.9804 ± 0.007
AGTGAGAT	0.9943 ± 0.0097
AGTGAGGGTA	0.983 ± 0.031
AGTGAGGTTG	0.977 ± 0.049
AGTGATGGGG	0.987 ± 0.037
AGTGCAGGCA	1 ± 0.034
AGTGCATTTT	1.06 ± 0.097
AGTGCCATTG	0.9627 ± 0.0067
AGTGCGGGTT	1.02 ± 0.025
AGTGGAAAC	1.0032 ± 0.00099
AGTGGAGGAC	1.02 ± 0.012
AGTGGCAAGG	0.9943 ± 0.0063
AGTGGCACGG	1 ± 0.029
AGTGGCTTTG	0.986 ± 0.019
AGTGGGAAAT	0.994 ± 0.015
AGTGGGAACA	1.01 ± 0.017
AGTGGGAATC	0.989 ± 0.032
AGTGGGAGGA	0.996 ± 0.02
AGTGGGATGG	1.03 ± 0.037
AGTGGGATTT	0.993 ± 0.039
AGTGGGGAAT	1.01 ± 0.049
